Test results as given in the supplement of paper PMC7877785.
± gives the uncertainty stated by the source.

Assay: self-splicing fitness, log relative to wild type (ln ratio); higher = more splicing; Tetrahymena group I intron in knt gene, E. coli kanamycin selection, DiMSum; sequences stand for … in CUCUCU…GGAGGGAAAAGUUAUCAGGCAUGCACCUGGUAGCUAGUCUUUAAACCAAUAGAUUGCAUCGGUUUAAAAGGCAAGACCGUCAAAUUGCGGGAAAGGGGUCAACAGCCGUUCAGUACCAAGUCUCAGGGGAAACUUUGAGAUGGCCUUGCAAAGGGUAUGGUAAUAAGCUGACGGACAUGGUCCUAACCACGCAGCCAAGUCCUAAGUCAACAGAUCUUCUGUUGAUAUGGAUGCAGUUCACAGACUAAAUGUCGGUCGGGGAAGAUGUAUUCUUCUCAUAAGAUAUAGUCGGACCUCUCCUUAAUGGGAGCUAGCGGAUGAAGUGAUGCAACACUGGAGCCGCUGGGAACUAAUUUGUAUGCGAAAGUAUAUUGAUUAGUUUUGGAGUACUCGUGGUCG
How it was run: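 Fitness was computed with DiMSum as the error-weighted combination of replicate fold changes, kanamycin versus none, each normalised to wild type. The library randomised all eight intron nucleotides of the P1ex region, with the intron placed in the knt kanamycin-resistance gene on pET-22b(+) in E. coli BL21(DE3). Six replicate transformations were grown overnight at 37°C or 30°C on LB agar with or without 25 μg/mL kanamycin, plus 100 μg/mL carbenicillin, 50 μM IPTG and 0.2% rhamnose. Pooled colonies were amplicon-sequenced on an Illumina HiSeq 2500.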

Sequence	self-splicing fitness (ln) (30 °C)	self-splicing fitness (ln) (37 °C)
CGUUAGCAAUAUUACGUGGU	-4.09 ± 0.26	-2.6 ± 0.28
CGUUAGCAAUAUUACGUGUU	-4.58 ± 0.22	-3.04 ± 0.17
CUAAAGCAAUAUUACGAAUC	-4.03 ± 0.14	-2.46 ± 0.16
CUAAAGCAAUAUUACGACAU	-3.986 ± 0.024	-2.72 ± 0.039
CUAAAGCAAUAUUACGACCU	-4.28 ± 0.46	-1.97 ± 0.22
CUAAAGCAAUAUUACGAGAU	-2.72 ± 0.16	-2.05 ± 0.23
CUAAAGCAAUAUUACGAUCC	-2.81 ± 0.27	-1.13 ± 0.36
CUAAAGCAAUAUUACGAUGA	-2.57 ± 0.11	-0.323 ± 0.1
CUAAAGCAAUAUUACGAUUA	-2.51 ± 0.092	-1.19 ± 0.12
CUAAAGCAAUAUUACGCAUC	-4.03 ± 0.35	–
CUAAAGCAAUAUUACGCCAA	-4.58 ± 0.32	-3.1 ± 0.37
CUAAAGCAAUAUUACGCCAG	-0.416 ± 0.13	0.13 ± 0.19
CUAAAGCAAUAUUACGCGAG	-0.464 ± 0.077	0.0633 ± 0.11
CUAAAGCAAUAUUACGCGGG	-2.27 ± 0.13	-2.03 ± 0.15
CUAAAGCAAUAUUACGCGUA	-3.35 ± 0.18	-2.63 ± 0.21
CUAAAGCAAUAUUACGCUAA	-5.16 ± 0.45	–
CUAAAGCAAUAUUACGGCUA	-3.85 ± 0.21	-2.34 ± 0.25
CUAAAGCAAUAUUACGGGCU	-4.47 ± 0.18	-2.59 ± 0.16
CUAAAGCAAUAUUACGGGGA	-3.4 ± 0.16	-1.96 ± 0.16
CUAAAGCAAUAUUACGUAGC	-3.73 ± 0.2	-2.94 ± 0.37
CUACAGCAAUAUUACGAACA	-2.94 ± 0.18	-2.49 ± 0.21
CUACAGCAAUAUUACGAAUG	-0.558 ± 0.059	-0.464 ± 0.075
CUACAGCAAUAUUACGACAA	-2.42 ± 0.2	-2.19 ± 0.21
CUACAGCAAUAUUACGACUG	-1.86 ± 0.087	-0.44 ± 0.1
CUACAGCAAUAUUACGAGAG	-2.79 ± 0.16	-2.21 ± 0.18

Sequence	self-splicing fitness (ln) (30 °C)	self-splicing fitness (ln) (37 °C)
CUACAGCAAUAUUACGAUAC	-3.74 ± 0.19	-2.58 ± 0.18
CUACAGCAAUAUUACGAUUA	-2.88 ± 0.16	-1.5 ± 0.15
CUACAGCAAUAUUACGCUCA	-4.47 ± 0.42	-2.6 ± 0.39
CUACAGCAAUAUUACGCUGG	-3.11 ± 0.097	-2.66 ± 0.15
CUACAGCAAUAUUACGGAAA	-4.58 ± 0.46	-2.9 ± 0.33
CUACAGCAAUAUUACGGAGC	-3.83 ± 0.14	-3.14 ± 0.17
CUACAGCAAUAUUACGGAGU	-3.21 ± 0.13	-2.89 ± 0.16
CUACAGCAAUAUUACGGCAA	-3.24 ± 0.24	-2.79 ± 0.23
CUACAGCAAUAUUACGGCCG	-0.378 ± 0.091	-0.0396 ± 0.11
CUACAGCAAUAUUACGGCCU	-4.36 ± 0.33	-1.68 ± 0.21
CUACAGCAAUAUUACGGUAU	-2.43 ± 0.08	-1.31 ± 0.096
CUACAGCAAUAUUACGGUGA	-1.61 ± 0.081	-0.453 ± 0.092
CUACAGCAAUAUUACGUAAC	-3.34 ± 0.16	-2.03 ± 0.21
CUACAGCAAUAUUACGUAGU	-3.43 ± 0.14	-2.49 ± 0.2
CUACAGCAAUAUUACGUAUG	-2.21 ± 0.09	-1.35 ± 0.091
CUACAGCAAUAUUACGUGAU	-2.01 ± 0.063	-1.18 ± 0.085
CUAGAGCAAUAUUACGAACG	0.208 ± 0.12	0.617 ± 0.14
CUAGAGCAAUAUUACGACUA	-1.97 ± 0.12	-1.26 ± 0.15
CUAGAGCAAUAUUACGCCCA	-3.13 ± 0.33	–
CUAGAGCAAUAUUACGCCGA	–	-2.06 ± 0.43
CUAGAGCAAUAUUACGCGCG	-0.479 ± 0.11	0.603 ± 0.16
CUAGAGCAAUAUUACGGAAC	-1.38 ± 0.17	–
CUAGAGCAAUAUUACGGAGU	-4.15 ± 0.33	-2.87 ± 0.43
CUAGAGCAAUAUUACGGAUU	–	-3.03 ± 0.43
CUAGAGCAAUAUUACGGGUA	-3.53 ± 0.36	-2.3 ± 0.36

Sequence	self-splicing fitness (ln) (30 °C)	self-splicing fitness (ln) (37 °C)
CUAGAGCAAUAUUACGGUAG	-0.666 ± 0.12	-0.0273 ± 0.15
CUAGAGCAAUAUUACGUAGG	-1.04 ± 0.1	1 ± 0.14
CUAGAGCAAUAUUACGUGAU	-1.85 ± 0.09	-0.696 ± 0.1
CUAGAGCAAUAUUACGUGUG	-0.455 ± 0.055	0.162 ± 0.08
CUAGAGCAAUAUUACGUUAA	-3.73 ± 0.24	-1.89 ± 0.28
CUAUAGCAAUAUUACGACGU	-3.85 ± 0.37	-1.96 ± 0.3
CUAUAGCAAUAUUACGAGAC	-1.7 ± 0.37	–
CUAUAGCAAUAUUACGAUGA	-1.92 ± 0.16	-1.3 ± 0.17
CUAUAGCAAUAUUACGCACA	-2.35 ± 0.27	-1.89 ± 0.25
CUAUAGCAAUAUUACGCAUG	-2.02 ± 0.093	-0.942 ± 0.095
CUAUAGCAAUAUUACGCCAA	–	-1.68 ± 0.49
CUAUAGCAAUAUUACGCUCG	-1.74 ± 0.12	-0.741 ± 0.14
CUAUAGCAAUAUUACGCUGC	-3.11 ± 0.36	–
CUAUAGCAAUAUUACGCUUG	-2.62 ± 0.25	-2.14 ± 0.26
CUAUAGCAAUAUUACGGAAA	-2.82 ± 0.2	-2.06 ± 0.42
CUAUAGCAAUAUUACGGAUC	-3.75 ± 0.4	-2.31 ± 0.25
CUAUAGCAAUAUUACGGCGG	-0.513 ± 0.12	-0.641 ± 0.14
CUAUAGCAAUAUUACGGCUG	-1.02 ± 0.12	-0.165 ± 0.15
CUAUAGCAAUAUUACGGGAU	-3.92 ± 0.25	-0.972 ± 0.16
CUAUAGCAAUAUUACGGGUC	-3.19 ± 0.29	-2.05 ± 0.28
CUAUAGCAAUAUUACGGGUG	-0.36 ± 0.061	0.369 ± 0.085
CUAUAGCAAUAUUACGGUCA	-1.82 ± 0.19	-1.7 ± 0.24
CUAUAGCAAUAUUACGGUGA	-3.35 ± 0.18	-2.59 ± 0.23
CUAUAGCAAUAUUACGGUUC	-3.27 ± 0.25	-2.12 ± 0.39
CUAUAGCAAUAUUACGUACU	-3.66 ± 0.47	–

Sequence	self-splicing fitness (ln) (30 °C)	self-splicing fitness (ln) (37 °C)
CUAUAGCAAUAUUACGUAUU	-3.8 ± 0.32	–
CUAUAGCAAUAUUACGUCAA	-3.16 ± 0.2	-2.7 ± 0.23
CUAUAGCAAUAUUACGUCGC	-3.75 ± 0.24	–
CUAUAGCAAUAUUACGUGAG	-0.571 ± 0.057	-0.137 ± 0.086
CUAUAGCAAUAUUACGUGCU	-3.61 ± 0.33	-2.56 ± 0.32
CUAUAGCAAUAUUACGUGUA	-2.77 ± 0.33	-2.55 ± 0.26
CUAUAGCAAUAUUACGUUUC	-3.68 ± 0.23	-2.86 ± 0.31
CUCAAGCAAUAUUACGAAGC	-3.4 ± 0.28	-2.56 ± 0.35
CUCAAGCAAUAUUACGAGGU	–	-1.19 ± 0.18
CUCAAGCAAUAUUACGAGUA	-3.49 ± 0.28	-2.41 ± 0.23
CUCAAGCAAUAUUACGAUGA	-1.31 ± 0.11	-2.07 ± 0.16
CUCAAGCAAUAUUACGCAGA	-3.06 ± 0.5	-2.41 ± 0.21
CUCAAGCAAUAUUACGCCGG	-2.92 ± 0.38	-1.53 ± 0.31
CUCAAGCAAUAUUACGCGUC	-4.33 ± 0.39	-1.37 ± 0.16
CUCAAGCAAUAUUACGCUAG	-4.26 ± 0.32	-2.35 ± 0.14
CUCAAGCAAUAUUACGCUCU	-4.12 ± 0.25	-2.39 ± 0.21
CUCAAGCAAUAUUACGGACG	-0.792 ± 0.063	0.266 ± 0.095
CUCAAGCAAUAUUACGGAUG	-1.48 ± 0.088	-1.05 ± 0.13
CUCAAGCAAUAUUACGGCGC	–	-0.598 ± 0.19
CUCAAGCAAUAUUACGGCUC	-3.53 ± 0.26	-1.34 ± 0.21
CUCAAGCAAUAUUACGGGUA	-2.42 ± 0.14	-1.01 ± 0.1
CUCAAGCAAUAUUACGGUGG	-2.01 ± 0.061	-1.1 ± 0.081
CUCAAGCAAUAUUACGGUUU	-2.38 ± 0.1	-2.36 ± 0.14
CUCAAGCAAUAUUACGUACA	-3.5 ± 0.23	-1.83 ± 0.18
